Experiment [1] has as its target T1, human PD-L1^ECD-hFc protein (human, UniProt Q9NZQ7 19-239, biotinylated in the PD-1 binding ELISA (Table 3) and in the Octet assay (Table 12)).
T1 construct: The plain and the biotinylated protein are kept as one molecule; also called PD-L1-hFc; Immunogen A; not shown: human IgG Fc fragment (hFc)
As to the kind of experiment: ELISA, 10 nM mAb. How it is done:
(§1) 100 μL of the diluted recombinant proteins were added to each well of 96-well plate. The plates were sealed with plastic film and incubated at 4° C. overnight. The plates were washed twice with wash buffer (PBS+0.01% (v/v) Tween20), and incubated with blocking buffer (PBS+0.01% (v/v) Tween20+1% (w/w) BSA) at room temperature for 2 hours. The blocking buffer was aspirated away, and 100 μL of purified anti-PD-L1 antibodies were added to each well and incubated for 2 hours at 37° C. The plates were washed three times with wash buffer (PBS+0.01% (v/v) Tween20). HRP-conjugated secondary antibody (Sigma) was added to each well and incubated for 2 hours at 37° C. After the plates were washed three times with wash buffer, 100 μL TMB substrate were added to each well, and the plates were incubated for 30 minutes at room temperature. 100 μL stop solution (0.1N HCl) was added to each well to stop the reaction.

The target of experiment [2] is T2, full length cyno PD-L1 on cells (cyno, UniProt G7PSE7 19-290).
T2 construct: also called CHO-K1-cPD-L1
Briefly: FACS CHO-K1-cPD-L1, 100.00 nM mAb. On the procedure:
(§2) Other CHO-K1 were stably transfected with a pIRES plasmid containing the nucleic acid sequence encoding full length cyno PD-L1 to generate CHO-K1 cells stably expressing cyno PD-L1 (herein referred to as CHO-K1-cPD-L1 cells). […] The culture media was aspirated, and the cells were washed twice with HBSS (Hanks Balanced Salt Solution, Invitrogen). The cells were treated with enzyme-free cell dissociation solution (Versene solution, Invitrogen) and collected. The cells were then washed twice with HBSS, cell counts were determined, and cells were resuspended with HBSS at 2×10⁶ cells/mL. Goat serum was added to the cell suspension to a final concentration of 1%, and the cells were blocked for 30 minutes on ice and then washed twice with HBSS. The cells were collected after centrifugation and resuspended in FACS buffer (HBSS+1% BSA, v/v) at 2×10⁶ cells/mL. 100 μL of the cell suspension were then added to each well of 96-well plate. 100 μL of purified anti-PD-L1 antibodies from Example 2 were added to each well of the 96-well plate and incubated for 2 hours on ice. […] The samples were washed three times with FACS buffer, and 100 μL fixation buffer (4% paraformaldehyde v/v) were added to each well and incubated for 10 minutes. The cells were then washed twice with FACS buffer and resuspended in 100 μL FACS buffer. The mean fluorescence intensity (MFI) was determined using FACS Calibur (BD), and the results are shown in FIGS. 7-8 and in Tables 10-11.

Experiment [3] addresses T3, full length human PD-L1 on cells (human, UniProt Q9NZQ7 19-290).
T3 construct: Also used as the target of the cell-based functional assays (transfected stimulator cells; PD-L1 of the cells in the mixed lymphocyte reaction); also called CHO-K1-hPD-L1; CHOK1-hPD-L1
As to the kind of experiment: FACS CHO-K1-hPD-L1, 0.001 nM mAb. How it is done:
as §2

For experiment [4], the target named is T1, human PD-L1^ECD-hFc protein. Briefly: ELISA, 0.001 nM mAb. On the procedure: as §1
(In general: ELISA stands for enzyme-linked immunosorbent assay.)

The target in experiment [5] is T3, full length human PD-L1 on cells. As to the kind of experiment: FACS CHO-K1-hPD-L1, 100.00 nM mAb.
Experiment [6] shares this target. Briefly: FACS CHO-K1-hPD-L1, 0.1 nM mAb.
Experiment [7] has as its target T1, human PD-L1^ECD-hFc protein. As to the kind of experiment: BLI Octet Red 96, biotinylated PD-L1-hFc on SA sensor. How it is done: Dissociation constants were determined by Octed red 96 (Fortiebio). The detailed operation and methods were followed according to the specifications of the instrument provided by the manufacturer. Briefly, a streptavidin sensor (SA sensor, Fortiebio) was used for the affinity determination. […] The reaction mixture was further incubated in PBS buffer (pH 7.4) containing 0.1% (v/w) BSA and 0.02% (v/v) Tween20 at 30° C. for 5 minutes.
(Biolayer interferometry detects binding as a change in optical thickness at a sensor tip.)

For experiment [8], the target named is T3, full length human PD-L1 on cells. As to the kind of experiment: cell-based or functional assay.

Usually Kd stands for the free concentration of one partner at which half of the binding sites on the other are occupied at equilibrium, for simple one-to-one binding. Low readings indicate higher affinity, high ones lower affinity. By koff is commonly meant the rate constant with which the complex falls apart. A low value points to slow dissociation. By kon is commonly meant the rate constant with which the complex forms.

T3 sequence (Q9NZQ7 19-290 limits assumed): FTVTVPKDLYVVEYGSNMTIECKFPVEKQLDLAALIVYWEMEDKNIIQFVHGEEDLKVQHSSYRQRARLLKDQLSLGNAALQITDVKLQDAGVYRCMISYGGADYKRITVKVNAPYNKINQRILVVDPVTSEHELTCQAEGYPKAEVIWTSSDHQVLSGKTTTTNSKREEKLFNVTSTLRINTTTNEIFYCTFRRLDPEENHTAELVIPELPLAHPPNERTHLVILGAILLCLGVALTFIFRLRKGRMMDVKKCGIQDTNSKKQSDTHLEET
T1 sequence (Q9NZQ7 19-239): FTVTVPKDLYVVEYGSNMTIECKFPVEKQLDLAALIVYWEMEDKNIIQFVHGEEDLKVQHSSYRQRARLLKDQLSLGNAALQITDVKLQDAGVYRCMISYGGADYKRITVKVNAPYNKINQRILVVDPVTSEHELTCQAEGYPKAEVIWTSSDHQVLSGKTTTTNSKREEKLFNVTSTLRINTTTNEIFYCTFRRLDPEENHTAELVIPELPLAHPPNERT
T2 sequence (G7PSE7 entry or part of it limits assumed): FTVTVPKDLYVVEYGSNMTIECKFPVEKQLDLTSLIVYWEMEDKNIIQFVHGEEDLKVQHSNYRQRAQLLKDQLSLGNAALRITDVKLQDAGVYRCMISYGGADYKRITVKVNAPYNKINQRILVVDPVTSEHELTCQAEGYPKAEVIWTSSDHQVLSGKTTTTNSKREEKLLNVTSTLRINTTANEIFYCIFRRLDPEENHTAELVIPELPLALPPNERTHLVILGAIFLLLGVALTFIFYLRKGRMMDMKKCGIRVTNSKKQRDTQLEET

B1: chimeric anti-PD-L1 antibody 192D9E7 (antibody, V domains shown)
VH: EVQLVESGGGLVQPGGSLRLSCAASGFTFSSYWMSWVRQAPGKGLEWVADIKQDGSEKYYVDSVKGRFTISRDNAKNSLYLQMNSLRAEDTAVYYCTRDKPHWGGVMDAWGQGTSVTVSS
VL: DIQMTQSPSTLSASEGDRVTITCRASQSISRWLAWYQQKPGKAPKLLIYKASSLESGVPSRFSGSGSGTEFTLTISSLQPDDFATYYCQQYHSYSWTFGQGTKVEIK
notes: Purified from hybridoma of Harbour H2L2 mice: human variable regions, rat constant regions
Regarding B1, the OD450 nm in experiment [1] stood at 2.69. This molecule displayed a Mean fluorescence intensity in experiment [2] of 87.9. The molecule also yielded a Mean fluorescence intensity in experiment [3] of 2.66. Moreover, the OD450 nm in experiment [4] came to 0.25. Moreover, in experiment [5], the Mean fluorescence intensity came out at 146. In experiment [6], this molecule returned a Mean fluorescence intensity of 23.5. In experiment [7], this molecule came in with a Kd of 0.0519 nM, an off-rate constant (koff) of 2.63e-05 s⁻¹ and an on-rate constant (kon) of 506000 M⁻¹ s⁻¹. Also, in experiment [8], the “IFN-γ (pg/mL), PBMC stimulation, 0.001 µg/mL mAb” value was 602 pg/mL; the “IFN-γ (pg/mL), PBMC stimulation, 0.01 µg/mL mAb” value worked out at 501 pg/mL; the “IFN-γ (pg/mL), PBMC stimulation, 0.1 µg/mL mAb” value worked out at 7470 pg/mL; the “IFN-γ (pg/mL), PBMC stimulation, 1 µg/mL mAb” value is 8300 pg/mL. Moreover, the “IFN-γ (pg/mL), PBMC stimulation, 10 µg/mL mAb” value in experiment [8] was 15700 pg/mL.

These data come from patent US20190010233A1 (JIANGSU HYAMAB PHARMACEUTICAL, published 2019).
